Measurements from article PMC3169412, “Structure of 3-ketoacyl-(acyl-carrier-protein) reductase from Rickettsia prowazekii at 2.25 Å resolution” (Acta Crystallographica Section F: Structural Biology and …, 2011).

Biological target: the molecule itself
Assay: crystal structure

B1: 3-ketoacyl-(acyl-carrier-protein) reductase (FabG) from Rickettsia prowazekii strain Madrid E (enzyme)
chain: MIDLTGKTSLITGASSGIGSAIARLLHKLGSKVIISGSNEEKLKSLGNALKDNYTIEVCNLANKEECSNLISKTSNLDILVCNAGITSDTLAIRMKDQDFDKVIDINLKANFILNREAIKKMIQKRYGRIINISSIVGIAGNPGQANYCASKAGLIGMTKSLSYEVATRGITVNAVAPGFIKSDMTDKLNEKQREAIVQKIPLGTYGIPEDVAYAVAFLASNNASYITGQTLHVNGGMLMV
notes: also called 3-ketoacyl-(ACP) reductase; 3-oxoacyl-(acyl-carrier-protein) reductase; not shown: His6, N-terminal, kept
  stoichiometry N: 4
